For one experiment, the target named is chicken MRP126 (chicken) (UniProt P28318). Put plainly: SEC-MALS; Superose 12 10/300 GL; samples at 0.5-2 mg/ml in tris buffer (25 mM tris, 100 mM NaCl, pH 7.4) + 0.5 mM CaCl2; flow 0.2 ml/min.
Another experiment concerns the target human S100A9 (human) (UniProt P06702). The description is as above.
For experiment [1], the target named is human S100A9 M63F (human) (UniProt P06702). The experiment is described as above.
The next experiment addresses human S100A12 (human) (UniProt P80511). Described as above.
The target of experiment [2] is opossum Toll-like receptor 4 (opossum).

Consider “chicken MRP126 (from UniProt P28318 1-119) (natural protein)”, for which the stoichiometry N with chicken MRP126 (chicken) came out at 2.
Regarding “human S100A9 (from UniProt P06702 1-114) (natural protein)”, the stoichiometry N with human S100A9 (human) turned out to be 2.
As for “human S100A9 M63F (from UniProt P06702 1-114) (natural protein)”, the stoichiometry N in experiment [1] was found to be 2.
Turning to “human S100A12 (from UniProt P80511 1-92) (natural protein)”, the stoichiometry N with human S100A12 (human) was determined as 2.
Regarding opossum S100A9 (natural protein), in experiment [2], the NF-κB luciferase reporter in HEK293T cells transfected with opossum TLR4, MD-2 and CD14; activity against that of human A9 (fold of human A9 activity) came out at 0.5.
